The values that follow come from US20200165344A1 (DRAGONFLY THERAPEUTICS, published 2020).

Test [1] has as its target T1, recombinant mouse NKG2D-Fc (mouse; human, UniProt O54709 90-232).
T1 construct: extracellular domain; also called mouse NKG2D-Fc fusion protein; Mouse NKG2D-Fc-biotin; not shown: human IgG1 Fc domain
T1 sequence (looked up): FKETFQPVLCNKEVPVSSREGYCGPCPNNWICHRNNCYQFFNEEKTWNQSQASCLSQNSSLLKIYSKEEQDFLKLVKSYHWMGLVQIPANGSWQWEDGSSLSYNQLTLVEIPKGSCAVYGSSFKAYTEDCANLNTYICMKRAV
The experiment in a line: ELISA, NKG2D-Fc coated.

Test [2] deals with T2, recombinant human NKG2D-Fc (human, UniProt P26718 73-216).
T2 construct: extracellular domain; also called human NKG2D-Fc fusion protein; NKG2D-Fc-biotin; not shown: human IgG1 Fc domain
T2 sequence (looked up): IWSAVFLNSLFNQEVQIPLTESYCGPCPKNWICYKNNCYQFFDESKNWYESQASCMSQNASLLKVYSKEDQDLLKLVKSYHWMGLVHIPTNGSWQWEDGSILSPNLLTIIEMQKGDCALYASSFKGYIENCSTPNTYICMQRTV
Briefly: ELISA, NKG2D-Fc coated. A general note: ELISA stands for enzyme-linked immunosorbent assay.

Test [3] addresses T3, recombinant cynomolgus NKG2D-Fc (cynomolgus; human, UniProt P61252 73-216).
T3 construct: extracellular domain; also called cynomolgus NKG2D-Fc fusion protein; not shown: human IgG1 Fc domain
T3 sequence (looked up): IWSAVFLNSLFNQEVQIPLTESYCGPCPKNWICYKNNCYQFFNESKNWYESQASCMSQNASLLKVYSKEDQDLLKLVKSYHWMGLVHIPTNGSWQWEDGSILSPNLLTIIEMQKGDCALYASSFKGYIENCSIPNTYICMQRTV
Briefly: ELISA, NKG2D-Fc coated.

The target in test [4] is T4, FLT3 expressed on human AML cell lines Molm-13 and EOL-1 (human, UniProt P36888 27-993).
T4 construct: the FLT3 in the assay is that carried by the cell lines themselves; also called FMS-like tyrosine kinase-3
Briefly: flow cytometry on Molm-13 and EOL-1 cells. In general terms: A flow cytometer gives signals particle by particle.
Experimental: Human AML cell lines (Molm-13 and EOL-1) expressing FLT3 were used to assay the binding of FLT3-targeting TriNKETs to the tumor-associated antigen. TriNKETs were incubated with the cells, and the binding was detected using fluorophore-conjugated anti-human IgG secondary antibodies. Cells were analyzed by flow cytometry and mean fluorescence intensity (MFI) was normalized to secondary antibody controls to obtain fold over background (FOB) values.

B1: ADI-27727 (antibody, V domains shown)
VH: QVQLVQSGAEVKKPGSSVKVSCKASGGTFSSYAISWVRQAPGQGLEWMGGIIPIFGTANYAQKFQGRVTITADESTSTAYMELSSLRSEDTAVYYCARGDSSIRHAYYYYGMDVWGQGTTVTVSS
VL: not shown
As for B1, the binding result in test [1], in test [2] and in test [3] was “binds” each time.

B2: ADI-29378 (antibody, V domains shown)
VH: QVQLVQSGAEVKKPGASVKVSCKASGYTFTSYYMHWVRQAPGQGLEWMGIINPSGGSTSYAQKFQGRVTMTRDTSTSTVYMELSSLRSEDTAVYYCAREGAGFAYGMDYYYMDVWGKGTTVTVSS
VL: EIVLTQSPATLSLSPGERATLSCRASQSVSSYLAWYQQKPGQAPRLLIYDASNRATGIPARFSGSGSGTDFTLTISSLEPEDFAVYYCQQSDNWPFTFGGGTKVEIK
notes: also called E78
As for B2, the binding result in test [1], in test [2] and in test [3] was “binds” each time.

B3: A49-TriNKET-FLT3-IMCEB10 (bispecific antibody, V domains shown)
VH 1: EVQLVESGGGLVKPGGSLRLSCAASGFTFSSYSMNWVRQAPGKGLEWVSSISSSSSYIYYADSVKGRFTISRDNAKNSLYLQMNSLRAEDTAVYYCARGAPMGAAAGWFDPWGQGTLVTVSS
VL 1: DIQMTQSPSSVSASVGDRVTITCRASQGISSWLAWYQQKPGKAPKLLIYAASSLQSGVPSRFSGSGSGTDFTLTISSLQPEDFATYYCQQGVSFPRTFGGGTKVEIK
VH 2: EVQLVQSGAEVKKPGASVKVSCKASGYTFTSYYMHWVRQAPGQGLEWMGIINPSGGSTSYAQKFQGRVTMTRDTSTSTVYMELSSLRSEDTAVYYCARGVGAHDAFDIWGQGTTVTVSSA
VL 2: DVVMTQSPLSLPVTPGEPASISCRSSQSLLHSNGNNYLDWYLQKPGQSPQLLIYLGSNRASGVPDRFSGSGSDTDFTLQISRVEAEDVGVYYCMQGTHPAISFGQGTRLEIKR
notes: also called A49-TriNKET-IMCEB10
With B3, the binding result in test [4] is recorded as “binds”.

B4: C26-TriNKET-FLT3-4G8 (bispecific antibody, V domains shown)
VH 1: QVQLQQWGAGLLKPSETLSLTCAVYGGSFSGYYWSWIRQPPGKGLEWIGEIDHSGSTNYNPSLKSRVTISVDTSKNQFSLKLSSVTAADTAVYYCARARGPWSFDPWGQGTLVTVSS
VL 1: DIQMTQSPSTLSASVGDRVTITCRASQSISSWLAWYQQKPGKAPKLLIYKASSLESGVPSRFSGSGSGTEFTLTISSLQPDDFATYYCQQYGSFPITFGGGTKVEIK
VH 2: QVQLQQPGAELVKPGASLKLSCKSSGYTFTSYWMHWVRQRPGHGLEWIGEIDPSDSYKDYNQKFKDKATLTVDRSSNTAYMHLSSLTSDDSAVYYCARAITTTPFDFWGQGTTLTVSS
VL 2: DIVLTQSPATLSVTPGDSVSLSCRASQSISNNLHWYQQKSHESPRLLIKYASQSISGIPSRFSGSGSGTDFTLSINSVETEDFGVYFCQQSNTWPYTFGGGTKLEIKR
notes: also called C26-TriNKET-4G8
Turning to B4, in test [4], the binding result was “binds”.

B5: A49-TriNKET-FLT3-4G8 (bispecific antibody, V domains shown)
VH 1: EVQLVESGGGLVKPGGSLRLSCAASGFTFSSYSMNWVRQAPGKGLEWVSSISSSSSYIYYADSVKGRFTISRDNAKNSLYLQMNSLRAEDTAVYYCARGAPMGAAAGWFDPWGQGTLVTVSS
VL 1: DIQMTQSPSSVSASVGDRVTITCRASQGISSWLAWYQQKPGKAPKLLIYAASSLQSGVPSRFSGSGSGTDFTLTISSLQPEDFATYYCQQGVSFPRTFGGGTKVEIK
VH 2: QVQLQQPGAELVKPGASLKLSCKSSGYTFTSYWMHWVRQRPGHGLEWIGEIDPSDSYKDYNQKFKDKATLTVDRSSNTAYMHLSSLTSDDSAVYYCARAITTTPFDFWGQGTTLTVSS
VL 2: DIVLTQSPATLSVTPGDSVSLSCRASQSISNNLHWYQQKSHESPRLLIKYASQSISGIPSRFSGSGSGTDFTLSINSVETEDFGVYFCQQSNTWPYTFGGGTKLEIKR
notes: also called A49-TriNKET-4G8
For B5, the binding result in test [4] was “binds”.

B6: ADI-27749 (antibody, V domains shown)
VH: EVQLVESGGGLVKPGGSLRLSCAASGFTFSSYSMNWVRQAPGKGLEWVSSISSSSSYIYYADSVKGRFTISRDNAKNSLYLQMNSLRAEDTAVYYCARGAPMGAAAGWFDPWGQGTLVTVSS
VL: DIQMTQSPSSVSASVGDRVTITCRASQGISSWLAWYQQKPGKAPKLLIYAASSLQSGVPSRFSGSGSGTDFTLTISSLQPEDFATYYCQQGVSFPRTFGGGTKVEIK
notes: also called A49
Regarding B6, the binding result in test [1], in test [2] and in test [3] was “binds” each time.
